The values below come from PMC7094341.

Assay [1] has as its target SARS-CoV papain-like protease (PLpro), trypsin-trimmed product of P-PLpro(C2)-His6 (SARS-CoV).
For assay [2] the target is unchanged. This is another data set of the same source.

Chain of ISG15(C)-AMC (P05161 82-157): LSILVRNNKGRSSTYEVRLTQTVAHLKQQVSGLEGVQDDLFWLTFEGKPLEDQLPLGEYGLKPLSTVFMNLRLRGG

Ub-7-amino-4-methylcoumarin: in assay [1], the kcat/KM of hydrolysis of Ub-AMC by PLpro (fluorescence, pH 7.8, 25 °C) came out at 19800 M⁻¹ s⁻¹.

With “ISG15(C)-AMC (from UniProt P05161 82-157) (domain or fragment)”, the kcat/KM of hydrolysis of ISG15(C)-AMC by PLpro (fluorescence, pH 7.8, 25 °C) in assay [2] turned out to be 94000 M⁻¹ s⁻¹.
